Measurements taken from patent US20180044393A1 (INSERM INSTITUT NATIONAL DE LA SANT ET DE LA RECHERCHE M …, published 2018).

Assays:
[1] = molecular target: T1, Orexin receptor-1 (human OX1R, wild type) stably expressed in CHO-S cells (human, UniProt O43613 1-425); assay: cell-based or functional assay
T1 sequence: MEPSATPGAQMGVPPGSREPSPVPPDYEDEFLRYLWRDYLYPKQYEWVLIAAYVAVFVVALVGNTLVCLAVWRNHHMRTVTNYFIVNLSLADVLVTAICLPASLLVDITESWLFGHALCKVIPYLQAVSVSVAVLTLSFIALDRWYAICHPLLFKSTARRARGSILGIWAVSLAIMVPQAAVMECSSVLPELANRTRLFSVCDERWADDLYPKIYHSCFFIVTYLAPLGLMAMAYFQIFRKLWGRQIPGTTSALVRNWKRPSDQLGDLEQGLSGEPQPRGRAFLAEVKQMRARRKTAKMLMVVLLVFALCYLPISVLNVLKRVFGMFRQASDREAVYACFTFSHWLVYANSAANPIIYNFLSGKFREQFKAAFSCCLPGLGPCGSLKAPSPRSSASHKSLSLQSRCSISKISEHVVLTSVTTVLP

[2] = molecular target: T1, Orexin receptor-1 (human OX1R, wild …); assay: competitive inhibition of 125I-OxA binding on CHO-S cells expressing human OX1R
Experimental: CHO—S cells expressing recombinant native or mutated OX1R were grown as previously described (El Firar et al., 2009) and maintained at 37° C. in a humidified 5% CO₂/air incubator. ¹²⁵I-orexia-A (74 TBq/mmol) was prepared as previously described (El Firar et al., 2009). […] Free peptides were removed by 2 cell washing cycles with PBS. […] Data were analyzed using the GraphPad software (http://www.graphpad.com).

B1: OxB 7-28 (peptide)
peptide: LQGRLQRLLQASGNHAAGILTM
notes: synthetic deletion mutant of OxB; also called deletion of the first six residues of OxB
Apoptosis induction EC50 [1]: 2180 nM | IP3 production EC50 [1]: 1510 nM | IC50 [2]: 388 nM
